The series deals with the molecule itself. In words: cryo-EM structure; cryo-electron tomography and sub-volume averaging (~3 nm) of purified YscC (0.2 mg/ml) reconstituted into liposomes of E. coli polar lipids at 5:1 lipid-to-protein ratio; oligomers isolated beforehand in DDM by sucrose gradient, MonoQ and Superose 6 gel filtration. (In general: Size exclusion chromatography separates by hydrodynamic size, large species first.)

B1: YscC (outer membrane secretin of the Yersinia enterocolitica injectisome) (natural protein)
chain: QELDWLPIPYVYVAKGESLRDLLTDFGANYDATVVVSDKINDKVSGQFEHDNPQDFLQHIASLYNLVWYYDGNVLYIFKNSEVASRLIRLQESEAAELKQALQRSGIWEPRFGWRPDASNRLVYVSGPPRYLELVEQTAAALEQQTQIRSEKTGALAIEIFPLKYASASDRTIHYRDDEVAAPGVATILQRVLSDATIQQVTVDNQRIPQAATRASAQARVEADPSLNAIIVRDSPERMPMYQRLIHALDKPSARIEVALSIVDINADQLTELGVDWRVGIRTGNNHQVVIKTTGDQSNIASNGALGSLVDARGLDYLLARVNLLENEGSAQVVSRPTLLTQENAQAVIDHSETYYVKVTGKEVAELKGITYGTMLRMTPRVLTQGDKSEISLNLHIEDGNQKPNSSGIEGIPTISRTVVDTVARVGHGQSLIIGGIYRDELSVALSKVPLLGDIPYIGALFRRKSELTRRTVRLFIIEPRIIDEGIAHHLALGNGQDLRTGILTVDEISNQSTTLNKLLGGSQCQPLNKAQEVQKWLSQNNKSSYLTQCKMDKSLGWRVVEGACTPAQSWCVSAPKRGVL
notes: YscC, secretin of the Ysc injectisome, Yersinia enterocolitica E40; full-length yscC with a stop codon amplified from the pYVe40 plasmid and cloned into pBAD/mycHisA (pMA6); The signal peptide is probably cut on export (surmise); The introduction cites 12-15 subunits for secretin rings; also called secretin YscC; YscC oligomers
For B1, the binding result is recorded as “binds”.

Source of the values: paper PMC3728920, “In situ structural analysis of the Yersinia enterocolitica injectisome” (eLife, 2013).
